Where no end group is shown, it is not given here. The star is where a group is joined. Biotin = O=C1N[C@H]2[C@H](CS[C@H]2CCCCC(=O)*)N1; AEEA = NCCOCCOCC(=O)O
Experiments:
Pertussis toxin (PT) [1] = target: T1, Pertussis toxin (PT) (Bordetella pertussis, UniProt P04977 35-269; P04978 28-226; P04979 29-227; P0A3R5 43-152; P04981 35-133); assay: ~200 pmol peptide on streptavidin sepharose with 100 pmol purified PT, gel and silver staining
T1 construct: mature; also called purified PT; biotinylated PT

Pertussis toxin (PT) [2] = target: T1, Pertussis toxin (PT); assay: 35S-labelled, His-tag purified free peptide (TNT expressed) on biotinylated PT on streptavidin magnetic beads, scintillation counting (test 1)
Experimental: (§1) By this measure, those bated with biotinylated PT immobilized on streptavidin-magnetic beads for 1 h at RT. The beads were washed 3× with HBS-buffer and then resuspended in water and analyzed by liquid scintillation counting. In control experiments each candidate was incubated with streptavidin beads only (without PT).

Pertussis toxin (PT) [3] = target: T1, Pertussis toxin (PT); assay: 20 pmol sepharose-immobilized peptide with 100 pmol (500 nM) PT, bound PT quantified by gel, 1:1 ratio assumed
Pertussis toxin (PT) [4] = target: T1, Pertussis toxin (PT); assay: 35S-labelled, His-tag purified free peptide (TNT expressed) on biotinylated PT on streptavidin magnetic beads, scintillation counting (test 1); remark: listed apart in the source
Experimental: as §1

Pertussis toxin (PT) [5] = target: T1, Pertussis toxin (PT); assay: BIAcore 2000, 2.5-100 nM peptide over PT amine coupled to a CM5 chip (6000 RU), HBS/EP, room temperature

Binder | Fraction of binding active peptide (Pertussis toxin (PT) [3]) [%] | binding result (Pertussis toxin (PT) [4]) | other results
RSSHCRHRNCHTITRGNMRIETPNNIRKDAK(Biotin) (cysteine pairing not given here) [synthetic biotinylated peptide pp26 5 c (Seq # 197557-1)] | – | – | binding result (Pertussis toxin (PT) [1]): binds
MGRGSHHHHHHARSSHCRHRNCHTITRGNMRIETPNNIRKDANAPKASAI [PP26 variant # 5 (seq # 197557)] | – | – | binding result (Pertussis toxin (PT) [2]): binds
MGRGSHHHHHHARSTMNTNRMDIQRLMTNHVKRDSSPGSIDANAPKASAI [PP26 variant # 6 (seq # 197596)] | – | – | binding result (Pertussis toxin (PT) [2]): binds
{Biotin-AEEA}-SGCVKKDELCSQSVPMCCEPLECKWFNENYGICGS (ends and bridges not checked, also called gurm 15n; gurmarin peptide 15) [synthetic biotinylated peptide gurmarin 15 n (Seq # 194511-1)] | > 50 | – | –
MGRGSHHHHHHARSWRDTRKLHMRHYFPLAIDSYWDHTLRDANAPKASAI [PP26 variant # 15 (seq # 198000)] | – | – | binding result (Pertussis toxin (PT) [2]): binds
{Biotin-AEEA}-SGCVKKDELCARWDLVCCEPLECIYTSELYATCG (cysteine pairing not given here, also called gurm 9n; gurmarin peptide 9) [synthetic biotinylated peptide gurmarin 9 n (Seq # 194259-1)] | > 12.5 | – | –
{Biotin-AEEA}-SGCVKKDELCELAIDECCEPLECTKGDLGFRKCG (ends and bridges not checked, also called gurm 19n) [synthetic biotinylated peptide gurmarin 19 n (Seq # 194737-1)] | > 5 | – | –
MGRGSHHHHHHARSWQPEVKMSSLVDTSQTVGAAVETRTTDANAPKASA [PP26 variant # 14 (seq # 197825)] | – | – | binding result (Pertussis toxin (PT) [2]): binds
gurmarin variant # 10 (seq # 194264) (peptide) MHHHHHHSGSSSGSGCVKKDELCELAVDECCEPLECFQMGHGFKRCGSGSSGSS | – | binds | –
gurmarin variant # 12 (seq # 194297) (peptide) MHHHHHHSGSSSGSGCVKKDELCVFYFPNCCEPLECRWVNDNYGWCGSGSSGSS | – | binds | –
{Biotin-AEEA}-RSWRDTRKLHMRHYFPLAIDSYWDHTLRDA (also called pp26 peptide 15; pp26 clone 15) [synthetic biotinylated peptide pp26 15 n (Seq # 198000-1)] | > 12.5 | – | –
gurmarin variant # 9 (seq # 194259) (peptide) MHHHHHHSGSSSGSGCVKKDELCARWDLVCCEPLECIYTSELYATCGSGSSGSS | – | binds | –
gurmarin variant # 16 (seq # 194533) (peptide) MHHHHHHSGSSSGSGCVKKDELCARWDLVCCEPLECIYTSELYATCGSGSSGSS | – | binds | –
gurmarin variant # 11 (seq # 194328) (peptide) MHHHHHHSGSSSGSGCVKKDELCNWVTPMRCEPLECLGHGLGYAYCGSGSSGSS | – | binds | –
gurmarin variant # 14 (seq # 194479) (peptide) MHHHHHHSGSSSGSGCVKKDELCTTASKSCCEPLECKWTNEHFGTCGSGSSGSS | – | binds | –
{Biotin-AEEA}-SGCVKKDELCELAVDECCEPLECFQMGHGFKRCG (ends and bridges not checked, also called gurm 10n) [synthetic biotinylated peptide gurmarin 10 n (Seq # 194264-1)] | > 5 | – | –
{Biotin-AEEA}-RSNVIPLNEVWYDTGWDRPHRSRLSIDDDA (also called pp26 peptide 9; pp26 clone 9) [synthetic biotinylated peptide pp26 9 n (Seq # 197588-1)] | > 50 | – | Kd (Pertussis toxin (PT) [5]): 7.5 nM; koff (Pertussis toxin (PT) [5]): 0.001 s⁻¹; kon (Pertussis toxin (PT) [5]): 130000 M⁻¹ s⁻¹
gurmarin variant # 15 (seq # 194511) (peptide) MHHHHHHSGSSSGSGCVKKDELCSQSVPMCCEPLECKWFNENYGICGSGSSGSS | – | binds | –
{Biotin-AEEA}-RSSHCRHRNCHTITRGNMRIETPNNIRKDA (cysteine pairing not given here) [synthetic biotinylated peptide pp26 5 n (Seq # 197557-2)] | > 5 | – | –
